We go through 3 molecules from patent US12173301B2, “Weed control methods and related compositions and plants” (Syngenta Crop Protection AG, priority 2019, dated 2024).

The data set is described as follows: FatA enzymatic kinetic parameters with oleoyl-CoA as substrate. The settings on record: Michaelis-Menten; for Km: read-out: Km (μM) - best fit. The data set is classed as biochemical. On the procedure:
For the determination of FatA enzymatic kinetic parameters with oleoyl-CoA as substrate, assays are carried out essentially as described above for the testing of inhibitor compounds but with some changes to the method as follows. Oleoyl CoA is omitted from the assay master mix and added as a separate component to achieve final concentration of 40 μM, 23.5 μM. 13.8 μM, 8.1 μM, 4.8 μM, 2.8 μM and 1.7 μM (i.e. 1.7× dilution scheme). The level of enzymatic activity is determined from the slope of the progress curve (initial linear rates) using assay values measured at 0, 20, 40, 60, 90 and 120 s after addition of the enzyme. Kinetic parameters are then calculated using the Michaelis-Menten model as implemented in GraphPad Prism software.
FatA variant enzymes were prepared from 1 L E coli grows and assays carried out to determine enzyme kinetics as described in Example 1.

B1: N269W: Arabidopsis FatA acyl-ACP thioesterase variant, substitution N269W relative to SEQ ID NO: 1 (protein, listed as Arabidopsis thaliana)
chain: MLKLSCNVTDSKLQRSLLFFSHSYRSDPVNFIRRRIVSCSQTKKTGLVPLRAVVSADQGSVVQGLATLADQLRLGSLTEDGLSYKEKFVVRSYEVGSNKTATVETIANLLQEVGCNHAQSVGFSTDGFATTTTMRKLHLIWVTARMHIEIYKYPAWGDVVEIETWCQSEGRIGTRRDWILKDSVTGEVTGRATSKWVMMNQDTRRLQKVSDDVRDEYLVFCPQEPRLAFPEENNRSLKKIPKLEDPAQYSMIGLKPRRADLDMNQHVNWVTYIGWVLESIPQEIVDTHELQVITLDYRRECQQDDVVDSLTTTTSEIGGTNGSATSGTQGHNDSQFLHLLRLSGDGQEINRGTTLWRKKPSS
The term Km denotes the substrate concentration at which the rate is half of its maximum. For B1, the “kcat (s^−1) - best fit” value worked out at 0.7 s⁻¹ and the Km was 1 µM.

B2: A118V: Arabidopsis FatA acyl-ACP thioesterase variant, substitution A118V relative to SEQ ID NO: 1 (protein, listed as Arabidopsis thaliana)
chain: MLKLSCNVTDSKLQRSLLFFSHSYRSDPVNFIRRRIVSCSQTKKTGLVPLRAVVSADQGSVVQGLATLADQLRLGSLTEDGLSYKEKFVVRSYEVGSNKTATVETIANLLQEVGCNHVQSVGFSTDGFATTTTMRKLHLIWVTARMHIEIYKYPAWGDVVEIETWCQSEGRIGTRRDWILKDSVTGEVTGRATSKWVMMNQDTRRLQKVSDDVRDEYLVFCPQEPRLAFPEENNRSLKKIPKLEDPAQYSMIGLKPRRADLDMNQHVNNVTYIGWVLESIPQEIVDTHELQVITLDYRRECQQDDVVDSLTTTTSEIGGTNGSATSGTQGHNDSQFLHLLRLSGDGQEINRGTTLWRKKPSS
Turning to B2, the “kcat (s^−1) - best fit” value came out at 4.5 s⁻¹ and the Km is 2.4 µM.

B3: A144Y: Arabidopsis FatA acyl-ACP thioesterase variant, substitution A144Y relative to SEQ ID NO: 1 (protein, listed as Arabidopsis thaliana)
chain: MLKLSCNVTDSKLQRSLLFFSHSYRSDPVNFIRRRIVSCSQTKKTGLVPLRAVVSADQGSVVQGLATLADQLRLGSLTEDGLSYKEKFVVRSYEVGSNKTATVETIANLLQEVGCNHAQSVGFSTDGFATTTTMRKLHLIWVTYRMHIEIYKYPAWGDVVEIETWCQSEGRIGTRRDWILKDSVTGEVTGRATSKWVMMNQDTRRLQKVSDDVRDEYLVFCPQEPRLAFPEENNRSLKKIPKLEDPAQYSMIGLKPRRADLDMNQHVNNVTYIGWVLESIPQEIVDTHELQVITLDYRRECQQDDVVDSLTTTTSEIGGTNGSATSGTQGHNDSQFLHLLRLSGDGQEINRGTTLWRKKPSS
B3: the “kcat (s^−1) - best fit” value was determined as 11.5 s⁻¹ and the Michaelis-Menten constant (Km) worked out at 3.9 µM.
